The nanobody polyreactivity screen of Harvey et al. (2022)

Assay: yeast display, Sf9 membrane polyspecificity reagent, FACS + sequencing; frameworks hold sequencing errors
In short: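 A synthetic nanobody library was expressed on Saccharomyces cerevisiae BJ5465 by galactose induction for 36–48 hours. The library was stained for 1 hour at 4 °C with 10% biotinylated, detergent-solubilized Sf9 membrane reagent and enriched with streptavidin microbeads before FACS. Low and high (top ~1%) gates were set on anti-HA fluorescence for expression and streptavidin fluorescence for reagent binding, and each polyreactivity label reflects the gate of origin.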

Sequence	polyreactivity (PSR sort gate)
QVQLVESGGGLVQAGGSLRLSCAASGITFQRYAMGWYRQAPGKERELVAAISTNGGTTYYADSVKGRFTISRDTAKNTVYLQMNSLKPEDTAVYYCNAESGYVYYIRYNYWGQGTQVTVSS	high polyreactivity
QVQLVESGGGLVQAGGSLRLSCAASGITFQSNDMGWYRQAPGKERELVAAISWSDDTTYYADSVKGRFTISRDNAKNTVYLQMNSLKPEDTAVYYCAAVYDSKSYYYWGQGTQVTVSS	high polyreactivity
QVQLVESGGGLVQAGGSLRLSCAASGITFQYYAMGWYRQAPGKERELVAAITSSGVSTYYADSVKGRFTISRDNAKNTVYLQMNSLKPEDTAVYYCNTVVRGWSSSAYDYWGQGTQVTVSS	low polyreactivity
QVQLVESGGGLVQAGGSLRLSCAASGITFQYYTMGWYRQAPGKERELVAAISWSTSSTYYADSVKGRFTISRDNAKNTVYLQMNSLKPEDTAVYYCAARYTTRRYYYWGQGTQVTVSS	high polyreactivity
QVQLVESGGGLVQAGGSLRLSCAASGITFRDNGMGWYRQAPGKESELVAAITSGGSTYYADSVKGRFTISRDNAKNTVYLQMNSLKPEDTAVYYCAAKRIKRRGWRQLSWYDSWGQGTQVTVSS	high polyreactivity
QVQLVESGGGLVQAGGSLRLSCAASGITFRFYAMGWYRQAPGKERELVAVISRGGGTTYYADSVKGRFTISRDNAKNTVYLHMNSLKPEDTAVYYCNAVIAWYRSDEYDYWGQGTQVTVSS	high polyreactivity
QVQLVESGGGLVQAGGSLRLSCAASGITFRGYAMGWYRQAPGKERELVATISYRGGNTYYADSVKGRFTISRDNAKNTVYLQMNSLKPEDTAVYYCARKYFRTSNLYGYWGQGTQVTVSS	high polyreactivity
QVQLVESGGGLVQAGGSLRLSCAASGITFRKYAMGWYRQAPGKERELVAGIRYSGSSTYYADSVKGRFTISRDNAKNTVYLQMNSLKPEDTAVYYCAVYGTTRYATTYDYWGQGTQVTVSS	high polyreactivity
QVQLVESGGGLVQAGGSLRLSCAASGITFRQYAMGWYRQAPGKERELVAVITSRGGTTYYADSVKGRFTISRDNAKNTVYLQMNSLKPEDTAVYYCAKVYGFPYYRAYFPERRNGYWGQGTQVTVSS	high polyreactivity
QVQLVESGGGLVQAGGSLRLSCAASGITFRRNAMGWSRQAHGQVRELVAAITRSGGSTYYADSVKGRFTISRDNAKNTVYLQMNSLKPEDTADYYCAADNTNDEDTGYYWGQGTQVTVSS	high polyreactivity
QVQLVESGGGLVQAGGSLRLSCAASGITFRRNAMGWYRQAPGKERELVAAISLSGTRTYYADSVKGRFTISRDNAKNTVYLQMNSLKPEDTAVYYCAASYYNKFDYWGQGTQVTVSS	high polyreactivity
QVQLVESGGGLVQAGGSLRLSCAASGITFRRNAMGWYRQAPGKERELVAAITSRGGSTYYADSVKGRFTISRDNAKNTVYLQMNSMKPEDTAVYYCNAGGVDRVDRDYWGQGTQVTVSS	high polyreactivity
QVQLVESGGGLVQAGGSLRLSCAASGITFRRYGMGWYRQAPGKERELVATITSSVGSRTYYADSVKGRFTISRDNAKNTVYLQMNSLKPEDTAVYYCAADHRVYDYEYWGQGTQVTVSS	low polyreactivity
QVQLVESGGGLVQAGGSLRLSCAASGITFRSYAMGWYRQAPGKERELVATISWSGGITYYADSVKGRFTISRDNAKNTVYLQMNSLKPEDTAFYYCAKASQSWGRVDYYYWGLGTQVTVSS	low polyreactivity
QVQLVESGGGLVQAGGSLRLSCAASGITFRSYDMGWYRQAPGTERELVAAISSTGRTYYADSVKGRFTISRDNAKNTVYLQMNSLKPEDTAVYYCARARSHYAYYWWNAGTGLDYWGQGTQVTVSS	high polyreactivity
QVQLVESGGGLVQAGGSLRLSCAASGITFRSYVMGWYRQAPGKEMEFVAVITKSGGSTYYADSVKGRFTISRDNAMNTVYLQMNSLKPEDTAVYYCGAEYARSSRYKISSEMYYWGQGTQVTVSS	high polyreactivity
QVQLVESGGGLVQAGGSLRLSCAASGITFRTNAMGWYRQAPGKERELVAAITTNGGNTYYADSVKGRFTISRDNAKNTVYLQMNSLKPEDTAVYYCNTATYVDSFPDPGDHWGQGTQVTVSS	low polyreactivity
QVQLVESGGGLVQAGGSLRLSCAASGITFRWYAMGWYRQAPGKERELVAAISTSGTRTYYADSVKGRFTISRDNAKNTVYLLMNSLKPEDTAVYYCAADYGRQLGRYGFGYWGQGTQVSVSS	high polyreactivity
QVQLVESGGGLVQAGGSLRLSCAASGITFRWYTMGWYRQAPGKERELVAAITSSGARTYYADSVKGRFTISRDNAKNTVYLQMNSLKPEDTAVYYCAATQTRFAAKDEYWGQGTQVTVSS	high polyreactivity
QVQLVESGGGLVQAGGSLRLSCAASGITFRYFAMGWYRQAPGKERELVAAITRSGSTTYADSVKGRFTISRDNAKNTVYLQMNSLKPEDTAVYYCAVDYYYLTGGVDYWGQGTQVTVSS	low polyreactivity

Sequence	polyreactivity (PSR sort gate)
QVQLVESGGGLVQAGGSLRLSCAASGITFRYYAMGWYRQAPGKERELVAAITRGGRTNYADSVKGRFTISRDNAKNTVYLQMNSLKPEDAAVYYCATGRDSNFGNSYYYWGQGTQVTVSS	high polyreactivity
QVQLVESGGGLVQAGGSLRLSCAASGITFRYYAMGWYRQAPGKERELVAGISGRGGSTYYADSVKGRFTISRDNAKNTVYLQLNSLKPEDTAVYYCAKDRLWYRGYRWGYYYWGQGTQVTVSS	high polyreactivity
QVQLVESGGGLVQAGGSLRLSCAASGITFRYYAMGWYRQAPGKERELVATITRGGSTYYADSVKGRFTISRDNAKNTVYLQMNSLKPEDTADYYCAAAGQRYTYWVDYWGQGTQVTVSS	high polyreactivity
QVQLVESGGGLVQAGGSLRLSCAASGITFSFYAMGWYRQAPGKERELVATIDSGGSTNYADSVKGRFTISRDNAKNTVYLQMNSLKPEDTAVYYCAVVFHYSTIGGGYRPRMYYWGQGTQVTVSS	low polyreactivity
QVQLVESGGGLVQAGGSLRLSCAASGITFSGYDMGWYRQAPGKERELVADITISTGSTYYADSVKGRFTISRDNAKNTVYLQMNSLKPEDTAVYYCAADWQQDRTVVLPSWGHAYDSWGQGTQVTVSS	low polyreactivity
QVQLVESGGGLVQAGGSLRLSCAASGITFSHYAMGWYRQAPGKEREFVAAIRYSGGRTYYADSVKGRFTISRDNAKNTVYLQMNSLKPEDTAVYYCAAVVPDRYWGQGTQVTVSS	high polyreactivity
QVQLVESGGGLVQAGGSLRLSCAASGITFSRNAMGWYRQAPGKERELVAVISTRGGRTYYADSVKGRFTISRDNAKNTVYLQMNSLKPEDTAVYYCAARSTYYRQQRGYDYWGQGTQVTVSS	high polyreactivity
QVQLVESGGGLVQAGGSLRLSCAASGITFSRYAMGWYRQAPGKERELVASISTSGGSTYYADSVKGRFTISRDNAKNTVYLQMNSLKPEDTAVYYCAASVWSSRRFGYWGQGTQVSVSS	high polyreactivity
QVQLVESGGGLVQAGGSLRLSCAASGITFSRYGMGWYRQAPGKERELVAVISWRGGRTYYADSVKGRFTISRYNAKNTVYLHMNSLKPEDTAVYYCAADSRQSVYDYDYWGQGTQVTVSS	high polyreactivity
QVQLVESGGGLVQAGGSLRLSCAASGITFSTYAMGWYRQAPGKERELVAAITKSGGSTYYADSVKGRFTISRDNAKNTVYLQMNSLKPEDTAVYYCAAKGWIWNPYNYWGQGTQVTVSS	low polyreactivity
QVQLVESGGGLVQAGGSLRLSCAASGITFSVYTMGWYRQAPGKERELVAAIDSDGITNYADSVKGRFTISRDNAKNNVYLQMNSLKPEDTAVYYCAKQSGRADGVSGFDYWGQGTQVTVSS	low polyreactivity
QVQLVESGGGLVQAGGSLRLSCAASGITFSWYAMGWYRQAPGKEREFVATISASGGSTYYADSVKGRFTISRDNAKNTVYLQMNSLKAEDTAVYYCAAVIWYRNGARGTFDYWGQGTQETVSS	high polyreactivity
QVQLVESGGGLVQAGGSLRLSCAASGITFSYYAMGWYRQAPGKERELVAAINSSGGSTYYADSVKGRFTISRDNAKNTVYLQMNSLKPEDTAVYYCAADSFLYPYAEFGYWGQGTQVTVSS	low polyreactivity
QVQLVESGGGLVQAGGSLRLSCAASGITFSYYAMGWYRQAPGKERELVAAINSSGGSTYYADSVKGRFTISRDNAKNTVYLQMNSLKPEDTAVYYCNADYGYHNHLFWGYYGWSSDHWGQGTQVTVSS	low polyreactivity
QVQLVESGGGLVQAGGSLRLSCAASGITFSYYAMGWYRQAPGKERELVAAISGSGTSTYYADSVKGRFTISRDNAKNTVYFQMNSLKPEDTAVYYCAAGPPRKPGYYYWGQGTQVTVSS	high polyreactivity
QVQLVESGGGLVQAGGSLRLSCAASGITFTAYAMGWYRQAPGKEREFVAVITRSGGSTYYADSVKGRFTISRDNAKNTVYLQMNSLKPEDTAVYYCAAETSYRYGWYYYWGQGTQVTVSS	high polyreactivity
QVQLVESGGGLVQAGGSLRLSCAASGITFTDYAMGWYRPAPGKERELVAAISSRGGSTYYADSVKGRFTISRDHAKNTVYLQMNSLKPEDTAVYYCNARFVRRGSGYDYWGQGTQVTLSS	high polyreactivity
QVQLVESGGGLVQAGGSLRLSCAASGITFTEYAMGWYRQAPGKERELVATISYGGGITYYADSVKGRFTISRDNAKNTVYLQMNSLKPEDTAVYYCAADGLSQVQRGMDYWGQGTQVTVSS	low polyreactivity
QVQLVESGGGLVQAGGSLRLSCAASGITFTFYAMGWYRQAPGKERELVAAISRRGGSTYYADSVKGRFTISRDNAKNTVYLQMNSLKPEDTAVYYCAARGYRPMDYWGHGTQVTVSS	high polyreactivity
QVQLVESGGGLVQAGGSLRLSCAASGITFTIYGMGWYRQATGKERELVAVISRRGGSTYYADSVKGRFTISRDNAKNTVYLQMNSLKPEDTAFYYCNTRTQGAKQYTGYDYWGQGTQVTVSS	high polyreactivity
